Numbered stars: 1 amine (or outer) side, 2 acyl side, 3 side chain; on linkers, the order of the positions; unused ones are H or OH. Bridge positions count the residues as written; N and C are the ends. Side chains are listed from the residue outwards. Ends that are not written are not given here. * marks the point of attachment. C20 diacid = O=C(O)CCCCCCCCCCCCCCCCCCC(=O)*; γGlu = O=C(O)[C@H](CCC(=O)[*:2])N[*:1]; AEEA = NCCOCCOCC(=O)O
T1: rat amylin receptor (rat calcitonin receptor + rat RAMP 3) (rat, UniProt P32214 25-516; Q9JJ73 23-147)
T1 construct: whole, on cells; also called rAmylin-R; rat amylin 3(a) receptor
T1 sequence (looked up) 1: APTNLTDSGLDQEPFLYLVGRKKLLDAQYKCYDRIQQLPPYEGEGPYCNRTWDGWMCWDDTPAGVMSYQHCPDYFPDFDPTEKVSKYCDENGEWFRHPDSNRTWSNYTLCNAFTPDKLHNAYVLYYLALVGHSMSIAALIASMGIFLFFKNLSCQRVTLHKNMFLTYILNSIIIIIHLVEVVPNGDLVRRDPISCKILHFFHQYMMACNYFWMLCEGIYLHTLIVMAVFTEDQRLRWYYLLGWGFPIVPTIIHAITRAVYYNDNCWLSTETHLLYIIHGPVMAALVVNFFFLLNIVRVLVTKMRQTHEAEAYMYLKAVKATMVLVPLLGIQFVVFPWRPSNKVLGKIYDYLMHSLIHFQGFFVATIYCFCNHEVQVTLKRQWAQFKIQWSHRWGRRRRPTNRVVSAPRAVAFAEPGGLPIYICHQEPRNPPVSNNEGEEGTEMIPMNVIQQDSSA
T1 sequence (looked up) 2: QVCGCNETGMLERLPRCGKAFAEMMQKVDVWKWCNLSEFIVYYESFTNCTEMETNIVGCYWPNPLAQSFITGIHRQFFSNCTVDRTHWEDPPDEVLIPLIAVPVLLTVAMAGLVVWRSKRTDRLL

T2: rat calcitonin receptor (rat, UniProt P32214 25-516)
T2 construct: whole, on cells; also called rCTR; rat calcitonin (a) receptor
T2 sequence (looked up): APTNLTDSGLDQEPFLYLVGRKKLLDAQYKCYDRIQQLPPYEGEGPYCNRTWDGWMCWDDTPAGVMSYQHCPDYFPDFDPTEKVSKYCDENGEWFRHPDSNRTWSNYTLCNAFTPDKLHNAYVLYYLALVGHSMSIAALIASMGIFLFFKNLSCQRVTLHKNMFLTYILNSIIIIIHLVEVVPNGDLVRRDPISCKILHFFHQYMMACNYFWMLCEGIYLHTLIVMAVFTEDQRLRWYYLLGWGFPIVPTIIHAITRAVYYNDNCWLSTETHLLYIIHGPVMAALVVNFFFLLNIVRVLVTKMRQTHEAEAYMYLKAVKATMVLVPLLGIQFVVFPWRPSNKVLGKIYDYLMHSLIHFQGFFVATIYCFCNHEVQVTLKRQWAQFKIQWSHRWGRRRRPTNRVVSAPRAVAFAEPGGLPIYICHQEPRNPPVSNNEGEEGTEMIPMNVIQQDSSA

T3: human calcitonin receptor (human, UniProt P30988 25-474)
T3 construct: whole, on cells; also called hCTR; hCT
T3 sequence (looked up): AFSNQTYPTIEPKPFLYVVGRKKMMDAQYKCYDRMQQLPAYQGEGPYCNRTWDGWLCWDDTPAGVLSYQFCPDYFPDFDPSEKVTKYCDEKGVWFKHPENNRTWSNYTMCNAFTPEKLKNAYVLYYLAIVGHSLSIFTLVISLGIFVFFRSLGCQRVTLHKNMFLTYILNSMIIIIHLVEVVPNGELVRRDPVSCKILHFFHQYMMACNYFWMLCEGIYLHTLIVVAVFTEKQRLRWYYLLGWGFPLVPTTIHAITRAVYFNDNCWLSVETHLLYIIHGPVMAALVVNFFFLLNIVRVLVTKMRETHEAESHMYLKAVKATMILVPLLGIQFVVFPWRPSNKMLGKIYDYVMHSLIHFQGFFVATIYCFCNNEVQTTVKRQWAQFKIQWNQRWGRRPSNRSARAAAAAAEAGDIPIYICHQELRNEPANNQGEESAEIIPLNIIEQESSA


Legend:
[1] = molecular target: T1, rat amylin receptor (rat calcitonin …); assay: SPA competition with 125I-rat amylin, membranes of BHK cells with rat calcitonin receptor + rat RAMP3 (Assay VI)
rat calcitonin receptor [2] = molecular target: T2, rat calcitonin receptor; assay: SPA competition with 125I-calcitonin, membranes of BHK cells with rat calcitonin receptor (Assay VIII)
[3] = molecular target: T3, human calcitonin receptor; assay: ratio of binding IC50s: human calcitonin receptor over human amylin receptor (reference)
Method in brief: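 Competition binding by SPA uses membrane preparations (35 ng/μL final) in pH 7.4 Hepes buffer with 1 mM CaCl2 and 5 mM MgCl₂. Incubation lasts 120 min at 25° C, and IC₅₀ comes from one-site fitting.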

rat calcitonin receptor [4] = molecular target: T2, rat calcitonin receptor; assay: ratio of binding IC50s: rat calcitonin receptor over rat amylin receptor (reference)

Row | IC50 [1] [nM] | IC50 (rat calcitonin receptor [2]) [nM] | Ratio hCT/hAmylin binding [3] | Ratio rCT/rAmylin binding (rat calcitonin receptor [4]) | Binder
1 | 0.276 | 44.8 | 32 | 162 | K([AEEA-γGlu-C20 diacid])CNTATCATQRLAGFLRHSSPNFGAIPSSTPVGSNTY-NH2 (disulfide 2-7; N-terminus assumed; SMILES CC[C@H](C)[C@H](NC(=O)[C@H](C)NC(=O)CNC(=O)[C@H](Cc1ccccc1)NC(=O)[C@H](CC(N)=O)NC(=O)[C@@H]1CCCN1C(=O)[C@H](CO)NC(=O)[C@H](CO)NC(=O)[C@H](Cc1c[nH]cn1)NC(=O)[C@H](CCCNC(=N)N)NC(=O)[C@H](CC(C)C)NC(=O)[C@H](Cc1ccccc1)NC(=O)CNC(=O)[C@H](C)NC(=O)[C@H](CC(C)C)NC(=O)[C@H](CCCNC(=N)N)NC(=O)[C@H](CCC(N)=O)NC(=O)[C@@H](NC(=O)[C@H](C)NC(=O)[C@@H]1CSSC[C@H](NC(=O)[C@@H](N)CCCCNC(=O)COCCOCCNC(=O)CC[C@H](NC(=O)CCCCCCCCCCCCCCCCCCC(=O)O)C(=O)O)C(=O)N[C@@H](CC(N)=O)C(=O)N[C@@H]([C@@H](C)O)C(=O)N[C@@H](C)C(=O)N[C@@H]([C@@H](C)O)C(=O)N1)[C@@H](C)O)C(=O)N1CCC[C@H]1C(=O)N[C@@H](CO)C(=O)N[C@@H](CO)C(=O)N[C@H](C(=O)N1CCC[C@H]1C(=O)N[C@H](C(=O)NCC(=O)N[C@@H](CO)C(=O)N[C@@H](CC(N)=O)C(=O)N[C@H](C(=O)N[C@@H](Cc1ccc(O)cc1)C(N)=O)[C@@H](C)O)C(C)C)[C@@H](C)O, synthetic analogue of human amylin; also called compound 71)
2 | 5.05 | 477 | 120 | 94.3 | K([AEEA-γGlu-C20 diacid])CNTATCATQRLAHFLRHSSPNFGAIPSSTNVGRNTY-NH2 (disulfide 2-7; N-terminus assumed; SMILES CC[C@H](C)[C@H](NC(=O)[C@H](C)NC(=O)CNC(=O)[C@H](Cc1ccccc1)NC(=O)[C@H](CC(N)=O)NC(=O)[C@@H]1CCCN1C(=O)[C@H](CO)NC(=O)[C@H](CO)NC(=O)[C@H](Cc1c[nH]cn1)NC(=O)[C@H](CCCNC(=N)N)NC(=O)[C@H](CC(C)C)NC(=O)[C@H](Cc1ccccc1)NC(=O)[C@H](Cc1c[nH]cn1)NC(=O)[C@H](C)NC(=O)[C@H](CC(C)C)NC(=O)[C@H](CCCNC(=N)N)NC(=O)[C@H](CCC(N)=O)NC(=O)[C@@H](NC(=O)[C@H](C)NC(=O)[C@@H]1CSSC[C@H](NC(=O)[C@@H](N)CCCCNC(=O)COCCOCCNC(=O)CC[C@H](NC(=O)CCCCCCCCCCCCCCCCCCC(=O)O)C(=O)O)C(=O)N[C@@H](CC(N)=O)C(=O)N[C@@H]([C@@H](C)O)C(=O)N[C@@H](C)C(=O)N[C@@H]([C@@H](C)O)C(=O)N1)[C@@H](C)O)C(=O)N1CCC[C@H]1C(=O)N[C@@H](CO)C(=O)N[C@@H](CO)C(=O)N[C@H](C(=O)N[C@@H](CC(N)=O)C(=O)N[C@H](C(=O)NCC(=O)N[C@@H](CCCNC(=N)N)C(=O)N[C@@H](CC(N)=O)C(=O)N[C@H](C(=O)N[C@@H](Cc1ccc(O)cc1)C(N)=O)[C@@H](C)O)C(C)C)[C@@H](C)O, synthetic analogue of human amylin; also called compound 84)
3 | 1.67 | 60.4 | 68.1 | 36.2 | K([AEEA-γGlu-C20 diacid])CNTATCATQRLAHFLRHSSPNFGAIPSSTNVGHNTY-NH2 (disulfide 2-7; N-terminus assumed; SMILES CC[C@H](C)[C@H](NC(=O)[C@H](C)NC(=O)CNC(=O)[C@H](Cc1ccccc1)NC(=O)[C@H](CC(N)=O)NC(=O)[C@@H]1CCCN1C(=O)[C@H](CO)NC(=O)[C@H](CO)NC(=O)[C@H](Cc1c[nH]cn1)NC(=O)[C@H](CCCNC(=N)N)NC(=O)[C@H](CC(C)C)NC(=O)[C@H](Cc1ccccc1)NC(=O)[C@H](Cc1c[nH]cn1)NC(=O)[C@H](C)NC(=O)[C@H](CC(C)C)NC(=O)[C@H](CCCNC(=N)N)NC(=O)[C@H](CCC(N)=O)NC(=O)[C@@H](NC(=O)[C@H](C)NC(=O)[C@@H]1CSSC[C@H](NC(=O)[C@@H](N)CCCCNC(=O)COCCOCCNC(=O)CC[C@H](NC(=O)CCCCCCCCCCCCCCCCCCC(=O)O)C(=O)O)C(=O)N[C@@H](CC(N)=O)C(=O)N[C@@H]([C@@H](C)O)C(=O)N[C@@H](C)C(=O)N[C@@H]([C@@H](C)O)C(=O)N1)[C@@H](C)O)C(=O)N1CCC[C@H]1C(=O)N[C@@H](CO)C(=O)N[C@@H](CO)C(=O)N[C@H](C(=O)N[C@@H](CC(N)=O)C(=O)N[C@H](C(=O)NCC(=O)N[C@@H](Cc1c[nH]cn1)C(=O)N[C@@H](CC(N)=O)C(=O)N[C@H](C(=O)N[C@@H](Cc1ccc(O)cc1)C(N)=O)[C@@H](C)O)C(C)C)[C@@H](C)O, synthetic analogue of human amylin; also called compound 80)
4 | 0.842 | 33.4 | 66.7 | 39.7 | K([AEEA-γGlu-C20 diacid])CNTATCATQRLAHFLRHSSPNFGAIPSSTPVGSNTY-NH2 (disulfide 2-7; N-terminus assumed; SMILES CC[C@H](C)[C@H](NC(=O)[C@H](C)NC(=O)CNC(=O)[C@H](Cc1ccccc1)NC(=O)[C@H](CC(N)=O)NC(=O)[C@@H]1CCCN1C(=O)[C@H](CO)NC(=O)[C@H](CO)NC(=O)[C@H](Cc1c[nH]cn1)NC(=O)[C@H](CCCNC(=N)N)NC(=O)[C@H](CC(C)C)NC(=O)[C@H](Cc1ccccc1)NC(=O)[C@H](Cc1c[nH]cn1)NC(=O)[C@H](C)NC(=O)[C@H](CC(C)C)NC(=O)[C@H](CCCNC(=N)N)NC(=O)[C@H](CCC(N)=O)NC(=O)[C@@H](NC(=O)[C@H](C)NC(=O)[C@@H]1CSSC[C@H](NC(=O)[C@@H](N)CCCCNC(=O)COCCOCCNC(=O)CC[C@H](NC(=O)CCCCCCCCCCCCCCCCCCC(=O)O)C(=O)O)C(=O)N[C@@H](CC(N)=O)C(=O)N[C@@H]([C@@H](C)O)C(=O)N[C@@H](C)C(=O)N[C@@H]([C@@H](C)O)C(=O)N1)[C@@H](C)O)C(=O)N1CCC[C@H]1C(=O)N[C@@H](CO)C(=O)N[C@@H](CO)C(=O)N[C@H](C(=O)N1CCC[C@H]1C(=O)N[C@H](C(=O)NCC(=O)N[C@@H](CO)C(=O)N[C@@H](CC(N)=O)C(=O)N[C@H](C(=O)N[C@@H](Cc1ccc(O)cc1)C(N)=O)[C@@H](C)O)C(C)C)[C@@H](C)O, synthetic analogue of human amylin; also called compound 61)
5 | 0.234 | 28.5 | 64.4 | 122 | K([AEEA-γGlu-C20 diacid])CNTATCATQRLAHFLRHSSPNFGAIPSSTNVGPNTY-NH2 (disulfide 2-7; N-terminus assumed; SMILES CC[C@H](C)[C@H](NC(=O)[C@H](C)NC(=O)CNC(=O)[C@H](Cc1ccccc1)NC(=O)[C@H](CC(N)=O)NC(=O)[C@@H]1CCCN1C(=O)[C@H](CO)NC(=O)[C@H](CO)NC(=O)[C@H](Cc1c[nH]cn1)NC(=O)[C@H](CCCNC(=N)N)NC(=O)[C@H](CC(C)C)NC(=O)[C@H](Cc1ccccc1)NC(=O)[C@H](Cc1c[nH]cn1)NC(=O)[C@H](C)NC(=O)[C@H](CC(C)C)NC(=O)[C@H](CCCNC(=N)N)NC(=O)[C@H](CCC(N)=O)NC(=O)[C@@H](NC(=O)[C@H](C)NC(=O)[C@@H]1CSSC[C@H](NC(=O)[C@@H](N)CCCCNC(=O)COCCOCCNC(=O)CC[C@H](NC(=O)CCCCCCCCCCCCCCCCCCC(=O)O)C(=O)O)C(=O)N[C@@H](CC(N)=O)C(=O)N[C@@H]([C@@H](C)O)C(=O)N[C@@H](C)C(=O)N[C@@H]([C@@H](C)O)C(=O)N1)[C@@H](C)O)C(=O)N1CCC[C@H]1C(=O)N[C@@H](CO)C(=O)N[C@@H](CO)C(=O)N[C@H](C(=O)N[C@@H](CC(N)=O)C(=O)N[C@H](C(=O)NCC(=O)N1CCC[C@H]1C(=O)N[C@@H](CC(N)=O)C(=O)N[C@H](C(=O)N[C@@H](Cc1ccc(O)cc1)C(N)=O)[C@@H](C)O)C(C)C)[C@@H](C)O, synthetic analogue of human amylin; also called compound 68)

Reference: patent US20140087995A1 (published 2014)
